Results published in article PMC11446282.
Residue numbers refer to the chain shown, from its start.

B1: 2ABA_HUMAN (protein, UniProt P63151 2-447, looked up)
Serine/threonine-protein …: AGAGGGNDIQWCFSQVKGAVDDDVAEADIISTVEFNHSGELLATGDKGGRVVIFQQEQENKIQSHSRGEYNVYSTFQSHEPEFDYLKSLEIEEKINKIRWLPQKNAAQFLLSTNDKTIKLWKISERDKRPEGYNLKEEDGRYRDPTTVTTLRVPVFRPMDLMVEASPRRIFANAHTYHINSISINSDYETYLSADDLRINLWHLEITDRSFNIVDIKPANMEELTEVITAAEFHPNSCNTFVYSSSKGTIRLCDMRASALCDRHSKLFEEPEDPSNRSFFSEIISSISDVKFSHSGRYMMTRDYLSVKIWDLNMENRPVETYQVHEYLRSKLCSLYENDCIFDKFECCWNGSDSVVMTGSYNNFFRMFDRNTKRDITLEASRENNKPRTVLKPRKVCASGKRKKDEISVDSLDFNKKILHTAWHPKENIIAVATTNNLYIFQDKVN
B2: AIFM2_HUMAN (protein, UniProt Q9BRQ8 2-373, looked up)
Ferroptosis suppressor …: GSQVSVESGALHVVIVGGGFGGIAAASQLQALNVPFMLVDMKDSFHHNVAALRASVETGFAKKTFISYSVTFKDNFRQGLVVGIDLKNQMVLLQGGEALPFSHLILATGSTGPFPGKFNEVSSQQAAIQAYEDMVRQVQRSRFIVVVGGGSAGVEMAAEIKTEYPEKEVTLIHSQVALADKELLPSVRQEVKEILLRKGVQLLLSERVSNLEELPLNEYREYIKVQTDKGTEVATNLVILCTGIKINSSAYRKAFESRLASSGALRVNEHLQVEGHSNVYAIGDCADVRTPKMAYLAGLHANIAVANIVNSVKQRPLQAYKPGALTFLLSMGRNDGVGQISGFYVGRLMVRLTKSRDLFVSTSWKTMRQSPP
B3: FOXC1_HUMAN (protein, UniProt Q12948 1-553, looked up)
Forkhead box protein C1: MQARYSVSSPNSLGVVPYLGGEQSYYRAAAAAAGGGYTAMPAPMSVYSHPAHAEQYPGGMARAYGPYTPQPQPKDMVKPPYSYIALITMAIQNAPDKKITLNGIYQFIMDRFPFYRDNKQGWQNSIRHNLSLNECFVKVPRDDKKPGKGSYWTLDPDSYNMFENGSFLRRRRRFKKKDAVKDKEEKDRLHLKEPPPPGRQPPPAPPEQADGNAPGPQPPPVRIQDIKTENGTCPSPPQPLSPAAALGSGSAAAVPKIESPDSSSSSLSSGSSPPGSLPSARPLSLDGADSAPPPPAPSAPPPHHSQGFSVDNIMTSLRGSPQSAAAELSSGLLASAAASSRAGIAPPLALGAYSPGQSSLYSSPCSQTSSAGSSGGGGGGAGAAGGAGGAGTYHCNLQAMSLYAAGERGGHLQGAPGGAGGSAVDDPLPDYSLPPVTSSSSSSLSHGGGGGGGGGGQEAGHHPAAHQGRLTSWYLNQAGGDLGHLASAAAAAAAAGYPGQQQNFHSVREMFESQRIGLNNSPVNGNSSCQMAFPSSQSLYRTSGAFVYDCSKF
B4: IER2_HUMAN (protein, UniProt Q9BTL4 1-223, looked up)
Immediate early response gene …: MEVQKEAQRIMTLSVWKMYHSRMQRGGLRLHRSLQLSLVMRSARELYLSAKVEALEPEVSLPAALPSDPRLHPPREAESTAETATPDGEHPFPEPMDTQEAPTAEETSACCAPRPAKVSRKRRSSSLSDGGDAGLVPSKKARLEEKEEEEGASSEVADRLQPPPAQAEGAFPNLARVLQRRFSGLLNCSPAAPPTAPPACEAKPACRPADSMLNVLVRAVVAF
B5: ARP19_HUMAN (protein, UniProt P56211 2-112, looked up)
cAMP-regulated phosphoprotein …: SAEVPEAASAEEQKEMEDKVTSPEKAEEAKLKARYPHLGQKPGGSDFLRKRLQKGQKYFDSGDYNMAKAKMKNKQLPTAAPDKTEVTGDHIPTPQDLPQRKPSLVASKLAG
B6: ZDS1 L880: ZDS1, L880 to alanine (protein, UniProt P50111 1-915, looked up, variant L880A)
Protein ZDS1: MSNRDNESMLRTTSSDKAIASQRDKRKSEVLIAAQSLDNEIRSVKNLKRLSIGSMDLLIDPELDIKFGGESSGRRSWSGTTSSSASMPSDTTTVNNTRYSDPTPLENLHGRGNSGIESSNKTKQGNYLGIKKGVHSPSRKLNANVLKKNLLWVPANQHPNVKPDNFLELVQDTLQNIQLSDNGEDNDGNSNENNDIEDNGEDKESQSYENKENNTINLNRGLSRHGNASLIRRPSTLRRSYTEFDDNEDDDNKGDSASETVNKVEERISKIKERPVSLRDITEELTKISNSAGLTDNDAITLARTLSMAGSYSDKKDQPQPEGHYDEGDIGFSTSQANTLDDGEFASNMPINNTMTWPERSSLRRSRFNTYRIRSQEQEKEVEQSVDEMKNDDEERLKLTKNTIKVEIDPHKSPFRQQDEDSENMSSPGSIGDFQDIYNHYRQSSGEWEQEMGIEKEAEEVPVKVRNDTVEQDLELREGTTDMVKPSATDDNKETKRHRRRNGWTWLNNKMSREDDNEENQGDDENEENVDSQRMELDNSKKHYISLFNGGEKTEVSNKEEMNNSSTSTATSQTRQKIEKTFANLFRRKPHHKHDASSSPSSSPSSSPSIPNNDAVHVRVRKSKKLGNKSGREPVEPIVLRNRPRPHRHHHSRHGSQKISVKTLKDSQPQQQIPLQPQLEGAIEIEKKEESDSESLPQLQPAVSVSSTKSNSRDREEEEAKKKNKKRSNTTEISNQQHSKHVQKENTDEQKAQLQAPAQEQVQTSVPVQASAPVQNSAPVQTSAPVEASAQTQAPAAPPLKHTSILPPRKLTFADVKKPDKPNSPVQFTDSAFGFPLPLLTVSTVIMFDHRLPINVERAIYRLSHLKLSNSKRGLREQVALSNFMYAYLNLVNHTLYMEQVAHDKEQQQQQQQQP
B7: ZDS1 R858: ZDS1, R858 to alanine (protein, UniProt P50111 1-915, looked up, variant R858A)
Protein ZDS1: B6 Protein ZDS1 with R858A, A880L
B8: ZDS1 R862: ZDS1, R862 to alanine (protein, UniProt P50111 1-915, looked up, variant R862A)
Protein ZDS1: B6 Protein ZDS1 with R862A, A880L
B9: ZDS1 L881: ZDS1, L881 to alanine (protein, UniProt P50111 1-915, looked up, variant L881A)
Protein ZDS1: B6 Protein ZDS1 with A880L, L881A
B10: ZDS1 Y861: ZDS1, Y861 to alanine (protein, UniProt P50111 1-915, looked up, variant Y861A)
Protein ZDS1: B6 Protein ZDS1 with Y861A, A880L
B11: ZDS1 S882: ZDS1, S882 to alanine (protein, UniProt P50111 1-915, looked up, variant S882A)
Protein ZDS1: B6 Protein ZDS1 with A880L, S882A
B12: ZDS1 L863: ZDS1, L863 to alanine (protein, UniProt P50111 1-915, looked up, variant L863A)
Protein ZDS1: B6 Protein ZDS1 with L863A, A880L
B13: ZDS1 I860: ZDS1, I860 to alanine (protein, UniProt P50111 1-915, looked up, variant I860A)
Protein ZDS1: B6 Protein ZDS1 with I860A, A880L
B14: ENSA_HUMAN (protein, UniProt O43768 2-121, looked up)
Alpha-endosulfine: SQKQEEENPAEETGEEKQDTQEKEGILPERAEEAKLKAKYPSLGQKPGGSDFLMKRLQKGQKYFDSGDYNMAKAKMKNKQLPSAGPDKNLVTGDHIPTPQDLPQRKSSLVTSKLAGGQVE
B15: IER5_HUMAN (protein, UniProt Q5VY09 1-327, looked up)
Immediate early response gene …: MEFKLEAHRIVSISLGKIYNSRVQRGGIKLHKNLLVSLVLRSARQVYLSDPCPGLYLAGPAGTPAPPPQQQPGEPAAGPPAGWGEPPPPAARASWPETEPQPERSSVSDAPRVGDEVPVATVTGVGDVFQGGEADATEAAWSRVEGPRQAAAREAEGTAGGWGVFPEVSRAARRPCGCPLGGEDPPGTPAATPRAACCCAPQPAEDEPPAPPAVCPRKRCAAGVGGGPAGCPAPGSTPLKKPRRNLEQPPSGGEDDDAEEMETGNVANLISIFGSSFSGLLRKSPGGGREEEEGEESGPEAAEPGQICCDKPVLRDMNPWSTAIVAF

How the values were obtained:
[1] = test system: B55α interactors; experiment: MS analysis of B55α WT, V228A, I284A, S287A and D340A immunopurifications; format: binding, human; conditions: log2 ratio of interactor abundance, 4 replicates each, normalised to bait B55α; for log2_ratio_D340_WT: B55α D340A vs WT immunopurification; for log2_ratio I284_WT: B55α I284A vs WT immunopurification; for log2_ratio S287_WT: B55α S287A vs WT immunopurification; for log2_ratio V228_WT: B55α V228A vs WT immunopurification
Method: Standard cloning techniques were used throughout. Point mutations were introduced by whole plasmid polymerase chain reaction (PCR). All constructs were fully sequenced. Synthetic DNA was purchased from GeneArt, Life Technologies and cloned into pcDNA5/FRT/TO (Invitrogen) expression vector containing YFP, resulting in the indicated YFP fusion proteins. These constructs were transiently transfected into HeLa cells 24 hours before harvesting cells. Cells were lysed in lysis buffer [50 mM tris-HCl (pH 7.5), 50 mM NaCl, 1 mM EDTA, 1 mM […], and 0.1% NP-40]. Complexes were immunoprecipitated at 4°C in lysis buffer with green fluorescent protein (GFP)–Trap (ChromoTek) and washed in lysis buffer. Precipitated protein complexes were washed three times in lysis buffer, eluted in 2× SDS sample buffer, and subjected to Western blotting or MS as indicated.
Pull-downs were analyzed on a Q-Exactive Plus quadrupole or Fusion Orbitrap Lumos mass spectrometer (Thermo Fisher Scientific) equipped with Easy-nLC 1000 or […] (Thermo Fisher Scientific) and nanospray source (Thermo Fisher Scientific).
Static modifications included carbamidomethylcysteine, and variable modifications included oxidized methionine and STY phosphorylation. Searches were filtered using orthogonal measures including mass measurement accuracy (±3 parts per million), Xcorr for charges from +2 to +4, and dCn targeting a <1% false discovery rate at the peptide level. Quantification of LC-MS/MS spectra was performed using MassChroQ ([57]) and the iBAQ method ([58]). All data were analyzed using R 4.3.0. Missing values were imputed from a normal distribution. […] In each dataset, the abundance of the protein of interest was normalized to be equal across all samples. Statistical analyses were done using a two-tailed Student’s t test.

[2] = test system: PP2A-B55α; experiment: Single alanine mutational scan, YFP-tagged interactors immunoprecipitated from HeLa cells, Western blot; format: binding, human; conditions: single alanine mutant of YFP-tagged ZDS1

| Molecule | log2_ratio_D340_WT [1] | log2_ratio I284_WT [1] | log2_ratio S287_WT [1] | log2_ratio V228_WT [1] | Experimental % binding [2] [%] |
| --- | --- | --- | --- | --- | --- |
| B1 | 0.00 | 0.00 | 0.00 | 0.00 |  |
| B2 | -0.14 | -0.15 | 0.33 | -0.53 |  |
| B3 | -5.21 | -3.45 | 0.53 | -2.65 |  |
| B4 | -8.18 | -0.03 | 0.35 | -2.82 |  |
| B5 | -2.01 | -0.06 | 0.27 | -0.89 |  |
| B6 |  |  |  |  | 0 |
| B7 |  |  |  |  | 75 |
| B8 |  |  |  |  | 32 |
| B9 |  |  |  |  | 11 |
| B10 |  |  |  |  | 42 |
| B11 |  |  |  |  | 98 |
| B12 |  |  |  |  | 110 |
| B13 |  |  |  |  | 60 |
| B14 | -2.08 | -0.42 | 0.42 | -1.31 |  |
| B15 | -7.50 | 0.57 | -6.37 | -5.72 |  |
